# Data from patent US20250019430A1 (SEOUL NATIONAL UNIVERSITY HOSPITAL, published 2025).
# T1: resistin antigen (UniProt Q9HD89 19-108, limits assumed)
# T1 construct: Used for the Octet assays and the monophage ELISAs, where only 'resistin antigen' is printed; tags not known; also called resistin antigen protein
# T1 sequence (looked up): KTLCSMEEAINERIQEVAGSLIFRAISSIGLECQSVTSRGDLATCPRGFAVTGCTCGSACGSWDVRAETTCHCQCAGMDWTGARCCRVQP
# T2: murine resistin (#450-28) from peprotech (mouse, UniProt Q99P87 21-114)
# T2 construct: Bought; also called mouse antigen; mouse resistin antigen
# T2 sequence (looked up): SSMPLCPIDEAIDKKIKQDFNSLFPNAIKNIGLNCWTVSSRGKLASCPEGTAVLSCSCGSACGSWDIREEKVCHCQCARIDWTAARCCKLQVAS
# Target: T1, resistin antigen
# Assay: Octet, resistin antigen on the biosensor, antibody in solution
# Text: To investigate the affinity between the antibody and the resistin antigen, the Octet (Forte bio) system, which enables real-time investigation of ligand-receptor binding using a biosensor, was used. The system is an instrument that binds resistin antigen protein to a biosensor, flows antibody through it, and optically analyzes the degree of antibody binding to the antigen bound to the sensor, measuring the level of antibody binding to the antigen with high sensitivity at the light wavelength level. The affinity for the resistin antigen was expressed as Kₒₙ (association constants, binding rate) and Kdis (dissociation constants, dissociation rate) between the receptor and ligand, and KD (equilibrium dissociation constant) for the reaction of binding and dissociation.
row,Binder,Kd
1,"RETN-5A2 (antibody, human IgG1, V domains shown, Human antibody from scFv phage library, converted to IgG and made in HEK293F cells; also called parent antibody 5A2; resistin 5A2 parent antibody) VH: QVQLVQSGAEGRKPGSSVKVSCKVSGDTFSSYAISWVRQAPGQGLEWMGGIIPIFGAADYAQKFKGRVTISADESTSTAYMELSSLRSEDTAVYYCAKGPDYYGSFDPWGQGTLITVSS VL: DIQMTQSPSFLSASVGDRVTITCRASQYIGTYLAWYQQQPGKAPKLLIYGASILQNGVPSRFSGSASGTEFTLTISSLQPEDFATYYCQQADSFPLTFGGGTKVDIKR",≤ 1 nM
2,"RETN-5A2_LS_1F11 (antibody, human IgG1, V domains shown, Light chain shuffled variant of RETN-5A2, tested as IgG) VH: QVQLVQSGAEGRKPGSSVKVSCKVSGDTFSSYAISWVRQAPGQGLEWMGGIIPIFGAADYAQKFKGRVTISADESTSTAYMELSSLRSEDTAVYYCAKGPDYYGSFDPWGQGTLITVSS VL: not shown",≤ 1 nM
3,"RETN-5A2_LS_2B02 (antibody, human IgG1, V domains shown, Light chain shuffled variant of RETN-5A2, tested as IgG) VH: QVQLVQSGAEGRKPGSSVKVSCKVSGDTFSSYAISWVRQAPGQGLEWMGGIIPIFGAADYAQKFKGRVTISADESTSTAYMELSSLRSEDTAVYYCAKGPDYYGSFDPWGQGTLITVSS VL: DIQMTQSPGTLSLSAGERATLSCRASQSVRGSYLAWYQQKPGQAPRLLIYGTSSRAPGIPDRFSGSGSGTDFTLTISSLEPEDFAVYYCQQRGDWLYTFGQGTKVEIKR",≤ 1 nM
4,"RETN-5A2_LS_2D07 (antibody, human IgG1, V domains shown, Light chain shuffled variant of RETN-5A2, tested as IgG) VH: QVQLVQSGAEGRKPGSSVKVSCKVSGDTFSSYAISWVRQAPGQGLEWMGGIIPIFGAADYAQKFKGRVTISADESTSTAYMELSSLRSEDTAVYYCAKGPDYYGSFDPWGQGTLITVSS VL: QSALTQPASVSGSPGQSVTISCTGTSSDIGRYNRVSWYQHHPGKAPKLIIYDVSNRPSGVSNRFSGSKSGNTASLTISGLQAGDESDYYCSAYTRSSTWVFGGGTKLTVLR",≤ 1 nM
5,"RETN-5A2_LS_2F11 (antibody, human IgG1, V domains shown, Light chain shuffled variant of RETN-5A2, tested as IgG) VH: QVQLVQSGAEGRKPGSSVKVSCKVSGDTFSSYAISWVRQAPGQGLEWMGGIIPIFGAADYAQKFKGRVTISADESTSTAYMELSSLRSEDTAVYYCAKGPDYYGSFDPWGQGTLITVSS VL: DIQMTQSPSSLSASVGDRVTITCRASQSIGTYLNWYQQKPGKAPKLLIYDASSLEDGVPSRFSGSGSGTDFTLTISSLQPEDSATYYCQQSYTMPLYTFGQGTKLEIKR",≤ 1 nM
6,"RETN-5A2_LS_2G03 (antibody, human IgG1, V domains shown, Light chain shuffled variant of RETN-5A2, tested as IgG) VH: QVQLVQSGAEGRKPGSSVKVSCKVSGDTFSSYAISWVRQAPGQGLEWMGGIIPIFGAADYAQKFKGRVTISADESTSTAYMELSSLRSEDTAVYYCAKGPDYYGSFDPWGQGTLITVSS VL: DIQMTQSPSSLSASVGDRVTITCQASQHVSSYLNWYQQKPGKAPKLLIYAASNLQSGVPSRFSGSGSGTDFTLTISSLQPDDFATYYCQQYDSYSSVYTFGPGTKLDIKR",≤ 1 nM
7,"RETN-5A2_LS_2E10 (antibody, human IgG1, V domains shown, Light chain shuffled variant of RETN-5A2, tested as IgG) VH: QVQLVQSGAEGRKPGSSVKVSCKVSGDTFSSYAISWVRQAPGQGLEWMGGIIPIFGAADYAQKFKGRVTISADESTSTAYMELSSLRSEDTAVYYCAKGPDYYGSFDPWGQGTLITVSS VL: DIQMTQSPSSLSASVGDRVTITCRTSQTITNYLNWYQQKPGRAPKLLIFDASNLETGVPSRFSGSGSGTDFTLTISSLQPEDFATYFCQQSYNPGYTFGQGTKLEIKR",≤ 1 nM
8,"RETN-5A2_LS_2H10 (antibody, human IgG1, V domains shown, Light chain shuffled variant of RETN-5A2, tested as IgG) VH: QVQLVQSGAEGRKPGSSVKVSCKVSGDTFSSYAISWVRQAPGQGLEWMGGIIPIFGAADYAQKFKGRVTISADESTSTAYMELSSLRSEDTAVYYCAKGPDYYGSFDPWGQGTLITVSS VL: NFMLTQPASVSGSPGQSITISCTGSSSDVGGYNYVTWYQQHPGKAPQLIIYDVTKRPSGVSNRFSGSKSGNSASLTISGLQAEDEADYYCSSYSSSTFYVFGTGTKVTVLR",≤ 1 nM

# Target: T2, murine resistin (#450-28) from peprotech
# Assay: ELISA, coated murine resistin
# Procedure: The mouse antigen was murine resistin (#450-28) from peprotech. Mouse antigen was diluted to 10 nM in DPBS in 96-well immune plates (NUNC, 439454) at 100 μl per well, and coated for 16 hours at 4° C. It was then blocked with skim milk diluted 4% in PBS for 1 hour at 37° C. Antibody proteins were diluted in 1% skim milk diluted in PBS to 1, 10, and 100 nM, respectively, at 100 μl per well and incubated for 2 hours at 37° C. After washing with PBS-T, anti-human Fc-HRP (Pierce® Peroxidase Conjugated Goat Anti-Human IgG FC (thermo fisher scientific, 31413)) was diluted at 1:10,000 dilution and reacted for 1 hour at 37° C. as a secondary antibody. After PBS-T washing, 100 μl of TMB (sigma, T0440) solution was applied to each well for a 10 min substrate reaction. After 10 minutes, the substrate reaction was stopped by treating each well with 50 μl of 1N H₂SO₄ and measured at 490 nm using a spectrophotometer (thermo fisher scientific, 51119200).
row,Binder,binding result
1,"RETN-5A2 (antibody, human IgG1, V domains shown, Human antibody from scFv phage library, converted to IgG and made in HEK293F cells; also called parent antibody 5A2; resistin 5A2 parent antibody) VH: QVQLVQSGAEGRKPGSSVKVSCKVSGDTFSSYAISWVRQAPGQGLEWMGGIIPIFGAADYAQKFKGRVTISADESTSTAYMELSSLRSEDTAVYYCAKGPDYYGSFDPWGQGTLITVSS VL: DIQMTQSPSFLSASVGDRVTITCRASQYIGTYLAWYQQQPGKAPKLLIYGASILQNGVPSRFSGSASGTEFTLTISSLQPEDFATYYCQQADSFPLTFGGGTKVDIKR","no binding (tested: antibody at 1, 10 and 100 nM)"
